The results in this text go back to publication PMC6570480, “PLK4 promotes centriole duplication by phosphorylating STIL to link the procentriole cartwheel to the microtubule wall” (eLife, 2019).

For experiment [1], the target named is DmSas4. Description: co-IP, immunoblot. The settings on record: reference: WT Ana2, no DmPLK4SBM-mCherry; sites S38. A general note: In western blotting, separated proteins are transferred to a membrane and probed.
Experiment [2] addresses CPAP TCP domain, 1142-1338 (UniProt Q9HC77). Description: GST pull-down, immunoblot. The note with it: sites S428.
For experiment [3], the target named is CPAP (UniProt Q9HC77). Description: immunofluorescence co-localisation at GFP-STIL/PLK4 foci. The settings on record: reference: WT Myc-GFP-STIL; sites S428.
Experiment [4] deals with CPAP (UniProt Q9HC77). Description: GFP-binding-protein co-IP, immunoblot. The note with it: sites S428.
The target of experiment [5] is T1, Recombinant full-length GST-STIL S428A, not phosphorylated (human, UniProt Q15468 1-1287, S428A).
T1 construct: STIL, human, full length; also called S428A GST-STIL; source: SF9 insect cells (Bac-to-Bac), purified (Glutathione Sepharose); incubated with 6xHis-hPlk4 (a.a. 1–416) without ATP; not shown: GST, N-terminal, kept
T1 sequence (looked up): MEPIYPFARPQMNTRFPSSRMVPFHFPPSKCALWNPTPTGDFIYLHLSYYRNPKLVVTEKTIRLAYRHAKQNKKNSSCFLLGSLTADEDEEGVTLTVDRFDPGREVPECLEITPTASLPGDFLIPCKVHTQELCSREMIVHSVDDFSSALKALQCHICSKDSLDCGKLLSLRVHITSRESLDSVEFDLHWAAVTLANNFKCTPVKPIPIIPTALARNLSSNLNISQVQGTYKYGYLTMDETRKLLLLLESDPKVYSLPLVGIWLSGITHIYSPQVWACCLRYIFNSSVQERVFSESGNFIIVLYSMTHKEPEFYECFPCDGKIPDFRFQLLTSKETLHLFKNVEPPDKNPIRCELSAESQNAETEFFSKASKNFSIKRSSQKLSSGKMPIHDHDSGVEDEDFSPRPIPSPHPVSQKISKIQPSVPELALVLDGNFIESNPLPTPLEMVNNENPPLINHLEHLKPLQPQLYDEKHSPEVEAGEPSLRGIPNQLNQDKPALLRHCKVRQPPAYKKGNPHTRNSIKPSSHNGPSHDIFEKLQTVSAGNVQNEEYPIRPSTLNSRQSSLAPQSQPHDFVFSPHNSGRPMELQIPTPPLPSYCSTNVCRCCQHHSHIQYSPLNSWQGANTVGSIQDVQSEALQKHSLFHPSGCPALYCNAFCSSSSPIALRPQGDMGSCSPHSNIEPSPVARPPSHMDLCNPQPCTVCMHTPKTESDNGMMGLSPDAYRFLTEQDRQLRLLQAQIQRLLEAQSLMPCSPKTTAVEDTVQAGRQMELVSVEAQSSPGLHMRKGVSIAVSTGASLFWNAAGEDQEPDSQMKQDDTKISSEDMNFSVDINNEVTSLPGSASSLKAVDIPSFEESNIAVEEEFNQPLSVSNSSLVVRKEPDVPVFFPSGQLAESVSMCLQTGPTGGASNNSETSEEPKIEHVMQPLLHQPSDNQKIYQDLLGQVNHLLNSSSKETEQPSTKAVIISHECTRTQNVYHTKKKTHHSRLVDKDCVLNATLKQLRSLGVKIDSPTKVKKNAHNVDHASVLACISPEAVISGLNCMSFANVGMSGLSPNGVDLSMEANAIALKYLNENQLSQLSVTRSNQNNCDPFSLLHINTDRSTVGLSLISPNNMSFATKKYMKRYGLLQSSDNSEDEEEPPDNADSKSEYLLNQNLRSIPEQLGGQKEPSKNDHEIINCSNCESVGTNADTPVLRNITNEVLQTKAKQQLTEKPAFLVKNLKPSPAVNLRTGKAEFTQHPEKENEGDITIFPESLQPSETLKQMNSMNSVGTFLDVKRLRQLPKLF
Nature of the experiment: pull-down; GST-hSTIL bound to GSH resin, incubated with 6xHis-hPlk4 (a.a. 1–416) with or without 10 µM ATP at 33°C for two hours, then with Flag-CPAP TCP domain for 2 hr at 4°C in 50 mM Na-HEPES pH 7.5, 400 mM NaCl, 2 mM MgCl2, 1 mM EGTA, 1 mM DTT, 0.15% Triton-X 100, 0.5 mg/ml BSA; immunoblot. The settings on record: both partners purified.

Experiment [6] addresses T2, Recombinant full-length GST-STIL (WT) phosphorylated in vitro by the His-PLK4 kinase domain (human, UniProt Q15468 1-1287, phosphoserine at 428 and phosphorylation at multiple other sites (84 in vitro phosphorylation sites identified on STIL), by the 6xHis-PLK4 kinase domain).
T2 construct: STIL, human, full length; also called GST-hSTIL; phosphorylated WT GST-STIL; source: SF9 insect cells (Bac-to-Bac), purified (Glutathione Sepharose); phosphorylated on beads by 6xHis-hPlk4 (a.a. 1–416) with ATP; not shown: GST, N-terminal, kept
T2 sequence (looked up): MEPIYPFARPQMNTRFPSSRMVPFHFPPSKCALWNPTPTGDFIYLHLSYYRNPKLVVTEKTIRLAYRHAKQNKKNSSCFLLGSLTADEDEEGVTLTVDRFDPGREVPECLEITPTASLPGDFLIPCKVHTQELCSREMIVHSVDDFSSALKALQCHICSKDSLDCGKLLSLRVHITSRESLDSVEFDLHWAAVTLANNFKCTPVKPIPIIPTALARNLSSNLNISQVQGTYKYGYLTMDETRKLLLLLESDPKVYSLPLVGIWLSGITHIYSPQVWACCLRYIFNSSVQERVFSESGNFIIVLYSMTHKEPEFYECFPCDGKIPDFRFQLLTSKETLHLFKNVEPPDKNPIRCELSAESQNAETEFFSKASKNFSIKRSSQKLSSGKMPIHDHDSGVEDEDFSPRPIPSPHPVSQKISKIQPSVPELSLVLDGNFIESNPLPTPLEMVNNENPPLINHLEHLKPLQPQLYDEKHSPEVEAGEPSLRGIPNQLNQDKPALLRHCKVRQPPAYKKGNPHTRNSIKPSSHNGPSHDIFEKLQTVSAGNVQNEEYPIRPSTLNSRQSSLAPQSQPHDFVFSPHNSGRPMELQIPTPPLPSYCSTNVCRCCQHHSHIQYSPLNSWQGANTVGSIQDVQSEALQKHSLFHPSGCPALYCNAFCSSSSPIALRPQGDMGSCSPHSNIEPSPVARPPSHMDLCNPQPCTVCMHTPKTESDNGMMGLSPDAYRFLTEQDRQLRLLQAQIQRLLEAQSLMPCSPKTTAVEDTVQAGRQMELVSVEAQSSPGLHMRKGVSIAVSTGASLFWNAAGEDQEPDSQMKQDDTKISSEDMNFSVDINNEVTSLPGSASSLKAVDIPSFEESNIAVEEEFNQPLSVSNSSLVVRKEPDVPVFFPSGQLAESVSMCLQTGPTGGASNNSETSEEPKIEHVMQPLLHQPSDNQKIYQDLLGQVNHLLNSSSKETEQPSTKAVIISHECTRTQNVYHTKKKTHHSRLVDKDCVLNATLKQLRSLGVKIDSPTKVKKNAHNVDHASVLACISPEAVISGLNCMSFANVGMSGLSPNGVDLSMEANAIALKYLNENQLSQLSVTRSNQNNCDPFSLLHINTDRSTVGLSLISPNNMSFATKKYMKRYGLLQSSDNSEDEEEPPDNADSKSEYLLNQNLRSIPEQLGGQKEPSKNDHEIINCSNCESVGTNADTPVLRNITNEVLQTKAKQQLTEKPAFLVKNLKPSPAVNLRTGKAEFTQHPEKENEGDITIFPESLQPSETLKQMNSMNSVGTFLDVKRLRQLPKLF
The experiment is described as above. The note with it: both partners purified.

Experiment [7] has as its target T3, Recombinant full-length GST-STIL S428A phosphorylated in vitro by the His-PLK4 kinase domain (human, UniProt Q15468 1-1287, S428A, phosphorylated at multiple sites by the 6xHis-PLK4 kinase domain (not at 428)).
T3 construct: STIL, human, full length; also called S428A GST-STIL; source: SF9 insect cells (Bac-to-Bac), purified (Glutathione Sepharose); phosphorylated on beads by 6xHis-hPlk4 (a.a. 1–416) with ATP; not shown: GST, N-terminal, kept
T3 sequence (looked up): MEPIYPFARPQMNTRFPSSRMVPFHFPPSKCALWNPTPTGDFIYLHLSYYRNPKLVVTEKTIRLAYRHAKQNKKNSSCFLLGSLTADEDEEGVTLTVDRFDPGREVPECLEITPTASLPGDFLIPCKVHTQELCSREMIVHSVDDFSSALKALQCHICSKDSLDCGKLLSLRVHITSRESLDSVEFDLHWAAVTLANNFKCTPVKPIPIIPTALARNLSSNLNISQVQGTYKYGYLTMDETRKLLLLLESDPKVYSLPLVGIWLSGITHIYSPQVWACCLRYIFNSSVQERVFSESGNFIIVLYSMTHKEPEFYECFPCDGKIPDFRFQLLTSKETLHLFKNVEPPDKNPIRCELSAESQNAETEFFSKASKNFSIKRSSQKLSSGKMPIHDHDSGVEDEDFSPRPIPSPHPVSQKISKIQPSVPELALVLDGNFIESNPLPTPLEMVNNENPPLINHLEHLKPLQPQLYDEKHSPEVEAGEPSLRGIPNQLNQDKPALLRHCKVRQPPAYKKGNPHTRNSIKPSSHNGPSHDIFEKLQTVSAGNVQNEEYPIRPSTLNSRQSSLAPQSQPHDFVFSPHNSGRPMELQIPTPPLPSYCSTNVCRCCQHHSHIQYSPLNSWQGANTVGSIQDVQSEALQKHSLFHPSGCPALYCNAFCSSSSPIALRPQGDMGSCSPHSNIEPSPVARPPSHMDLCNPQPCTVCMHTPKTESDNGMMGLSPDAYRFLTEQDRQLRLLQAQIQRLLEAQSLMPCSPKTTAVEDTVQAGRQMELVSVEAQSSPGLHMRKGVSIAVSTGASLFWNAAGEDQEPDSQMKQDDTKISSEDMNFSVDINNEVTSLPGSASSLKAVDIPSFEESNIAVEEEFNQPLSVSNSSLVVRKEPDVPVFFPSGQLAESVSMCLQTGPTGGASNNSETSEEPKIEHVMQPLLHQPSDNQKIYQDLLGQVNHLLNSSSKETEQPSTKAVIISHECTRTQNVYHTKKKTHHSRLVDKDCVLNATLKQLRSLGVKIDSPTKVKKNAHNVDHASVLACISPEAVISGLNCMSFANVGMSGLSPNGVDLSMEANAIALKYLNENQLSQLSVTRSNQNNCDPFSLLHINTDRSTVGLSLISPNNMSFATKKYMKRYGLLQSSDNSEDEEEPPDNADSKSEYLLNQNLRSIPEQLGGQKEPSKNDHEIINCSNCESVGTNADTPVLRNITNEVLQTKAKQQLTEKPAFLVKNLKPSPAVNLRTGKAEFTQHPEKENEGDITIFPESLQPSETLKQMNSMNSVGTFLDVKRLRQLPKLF
The experiment is described as above. The settings on record: both partners purified.

Ana2 WT Ana2 + DmPLK4SBM-mCherry gave a fold change in experiment [1] of more than 6.

Take “STIL (from UniProt Q15468) GST-STIL S428A, PLK4 + ATP”: the “binding against the reference” value in experiment [2] (reference: WT GST-STIL, PLK4 + ATP) is listed as “weaker”.

As for “STIL (from UniProt Q15468) Myc-GFP-STIL S428A”, the other: percent reduction of CPAP at foci in experiment [3] is more than 90%.

On to “STIL (from UniProt Q15468) STIL S428A + kinase-active PLK4∆24-mCherry”, for which, in experiment [4] (reference: WT STIL + kinase-active PLK4∆24-mCherry), the “binding against the reference” value is recorded as “weaker”.

On to “STIL (from UniProt Q15468) WT GST-STIL + His-PLK4 kinase domain + ATP”, for which the fold change in experiment [2] (reference: WT GST-STIL + His-PLK4 kinase domain, no ATP) is 2.5.

With “STIL (from UniProt Q15468) WT STIL + kinase-active PLK4∆24-mCherry”, in experiment [4] (reference: WT STIL + kinase-dead PLK4∆24-mCherry), the fold change was more than 7.

B1: Flag-CPAP TCP domain (aa 1142–1338) (domain or fragment, human, UniProt Q9HC77 1142-1338, looked up)
chain: EEEEDQDIQGEISHPDGKVEKVYKNGCRVILFPNGTRKEVSADGKTITVTFFNGDVKQVMPDQRVIYYYAAAQTTHTTYPEGLEVLHFSSGQIEKHYPDGRKEITFPDQTVKNLFPDGQEESIFPDGTIVRVQRDGNKLIEFNNGQRELHTAQFKRREYPDGTVKTVYANGHQETKYRSGRIRVKDKEGNVLMDTEL
notes: CPAP (CENPJ), human, TCP domain, residues 1142–1338; Expressed as GST-Flag-CPAP TCP; also called Flag-TCP domain; Flag-TCP; source: E. coli Rosetta (DE3), purified; not shown: FLAG, N-terminal, kept
For the molecule B1, the binding result in experiment [5] and in experiment [7] was “binds” each time. In addition, the “fold increase in binding, phosphorylated against unphosphorylated GST-STIL” value in experiment [6] was approximately 2.5 fold.
